Where a chain is given by its changes, count along the chain named. Names and notes keep the numbering of the source. Values belong to the binder of their own block, whether it stands above or below them.
Columns and labels:
PD-1 [1] = biological target: T1, PD-1 (UniProt Q15116 25-167, limits assumed); test: ELISA, OD mutant/OD WT; B=70-90%
PD-1 [2] = biological target: T1, PD-1; test: ELISA, OD mutant/OD WT; ↓=less than 70%
CD28 = CD28 (UniProt P10747 19-152, limits assumed); test: ELISA, conjugate vs WT antibody
CTLA-4 [3] = biological target: T2, CTLA-4 (UniProt P16410 36-162, limits assumed); test: ELISA, OD mutant/OD WT; A=90-110%
T2 sequence (P16410 36-162 limits assumed): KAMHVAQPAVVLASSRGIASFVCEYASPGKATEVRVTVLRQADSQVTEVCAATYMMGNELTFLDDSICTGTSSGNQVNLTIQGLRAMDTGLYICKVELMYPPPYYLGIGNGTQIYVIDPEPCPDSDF

CTLA-4 [4] = biological target: T2, CTLA-4; test: ELISA, conjugate vs WT antibody
CTLA-4 [5] = biological target: T3, CTLA-4 (UniProt P16410 36-162, limits assumed); test: ELISA; S47 on the Cys
T3 construct: also called CTLA-4 protein
T3 sequence (P16410 36-162 limits assumed): as above

T1 sequence (Q15116 25-167 limits assumed): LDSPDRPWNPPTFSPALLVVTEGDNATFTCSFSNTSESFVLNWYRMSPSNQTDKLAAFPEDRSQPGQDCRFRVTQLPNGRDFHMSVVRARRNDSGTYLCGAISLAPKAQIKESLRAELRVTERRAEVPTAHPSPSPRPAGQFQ

B1: anti-PD-1 antibody 2 light chain A25C (antibody, human IgG4 S228P, kappa, V domains shown)
VH: QVQLVESGGGVVQPGRSLRLDCKASGITFSNSGMHWVRQAPGKGLEWVAVIWYDGSKRYYADSVKGRFTISRDNSKNTLFLQMNSLRAEDTAVYYCATNDDYWGQGTLVTVSS
VL: EIVLTQSPATLSLSPGERATLSCRCSQSVSSYLAWYQQKPGQAPRLLIYDASNRATGIPARFSGSGSGTDFTLTISSLEPEDFAVYYCQQSSNWPRTFGQGTKVEIKR
- binding activity (OD after mutation/OD wild type) (PD-1 [1]): 70 to 90%

B12: anti-CD28 antibody heavy chain G54C-R4-1 (antibody, human IgG4, kappa, V domains shown)
VH: QVQLVQSGAEVKKPGASVKVSCKASGYTFTSYYIHWVRQAPGQGLEWIGCIYPCNVNTNYNEKFKDRATLTVDTSISTAYMELSRLRSDDTAVYFCTRSHYGLDWNFDVWGQGTTVTVSS
VL: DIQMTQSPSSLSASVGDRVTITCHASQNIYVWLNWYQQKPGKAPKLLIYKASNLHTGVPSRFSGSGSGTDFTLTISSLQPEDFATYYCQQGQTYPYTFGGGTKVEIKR
modifications: R4-1 on Cys 54
- binding activity (% of WT) (CD28): 97.9%

B13: anti-CD28 antibody heavy chain T30C-R4-1 (antibody, human IgG4, kappa, V domains shown)
VH: B12 VH with T30C, C54G
VL: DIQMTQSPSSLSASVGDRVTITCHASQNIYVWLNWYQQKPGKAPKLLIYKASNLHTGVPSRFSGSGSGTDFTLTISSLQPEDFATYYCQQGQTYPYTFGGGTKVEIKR
modifications: R4-1 on Cys 30
- binding activity (% of WT) (CD28): 87.3%

B14: anti-CD28 antibody heavy chain G102C-R4-1 (antibody, human IgG4, kappa, V domains shown)
VH: B12 VH with C54G, G102C
VL: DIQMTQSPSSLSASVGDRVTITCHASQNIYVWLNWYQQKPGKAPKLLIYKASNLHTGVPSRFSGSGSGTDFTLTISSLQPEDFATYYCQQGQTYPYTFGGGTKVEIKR
modifications: R4-1 on Cys 102
- binding activity (% of WT) (CD28): 80.1%

B15: anti-CD28 antibody heavy chain S99C-R4-1 (antibody, human IgG4, kappa, V domains shown)
VH: B12 VH with C54G, S99C
VL: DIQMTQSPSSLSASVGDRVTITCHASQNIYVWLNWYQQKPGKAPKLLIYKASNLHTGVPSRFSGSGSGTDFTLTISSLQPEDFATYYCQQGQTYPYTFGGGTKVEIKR
modifications: R4-1 on Cys 99
- binding activity (% of WT) (CD28): 87.6%

B16: anti-CD28 antibody heavy chain S31C-R4-1 (antibody, human IgG4, kappa, V domains shown)
VH: B12 VH with S31C, C54G
VL: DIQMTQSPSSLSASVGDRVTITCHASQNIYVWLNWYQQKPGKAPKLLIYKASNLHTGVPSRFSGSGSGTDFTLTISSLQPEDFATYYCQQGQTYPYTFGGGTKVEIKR
modifications: R4-1 on Cys 31
- binding activity (% of WT) (CD28): 97.5%

B17: anti-CD28 antibody heavy chain T58C-R4-1 (antibody, human IgG4, kappa, V domains shown)
VH: B12 VH with C54G, T58C
VL: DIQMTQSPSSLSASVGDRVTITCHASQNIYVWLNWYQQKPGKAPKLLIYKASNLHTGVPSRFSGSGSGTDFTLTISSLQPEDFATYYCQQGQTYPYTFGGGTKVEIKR
modifications: R4-1 on Cys 58
- binding activity (% of WT) (CD28): 89.3%

B18: anti-CD28 antibody heavy chain Y27C-R4-4 (antibody, human IgG4, kappa, V domains shown)
VH: B12 VH with Y27C, C54G
VL: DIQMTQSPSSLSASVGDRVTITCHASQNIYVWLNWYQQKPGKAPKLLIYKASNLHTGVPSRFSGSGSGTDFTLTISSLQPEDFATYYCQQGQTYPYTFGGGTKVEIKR
modifications: R4-4 on Cys 27
- binding activity (% of WT) (CD28): 94.2%

B19: anti-PD-1 antibody 1 heavy chain K65C (antibody, human IgG4 S228P, kappa, V domains shown)
VH: QVQLVQSGVEVKKPGASVKVSCKASGYTFTNYYMYWVRQAPGQGLEWMGGINPSNGGTNFNEKFCNRVTLTTDSSTTTAYMELKSLQFDDTAVYYCARRDYRFDMGFDYWGQGTTVTVSS
VL: EIVLTQSPATLSLSPGERATLSCRASKGVSTSGYSYLHWYQQKPGQAPRLLIYLASYLESGVPARFSGSGSGTDFTLTISSLEPEDFAVYYCQHSRDLPLTFGGGTKVEIKR
- binding activity vs wild type (PD-1 [2]): < 70%

B20: anti-PD-1 antibody 1 heavy chain Y32C (antibody, human IgG4 S228P, kappa, V domains shown)
VH: B19 VH with Y32C, C65K
VL: B19 VL
- binding activity vs wild type (PD-1 [2]): < 70%

B21: anti-PD-1 antibody 1 light chain L37C (antibody, human IgG4 S228P, kappa, V domains shown)
VH: B19 VH with C65K
VL: B19 VL with L37C
- binding activity (OD after mutation/OD wild type) (PD-1 [1]): 70 to 90%

B25: anti-CTLA-4 antibody heavy chain A61C (antibody, human IgG1, kappa, V domains shown)
VH: QVQLVESGGGVVQPGRSLRLSCAASGFTFSSYTMHWVRQAPGKGLEWVTFISYDGNNKYYCDSVKGRFTISRDNSKNTLYLQMNSLRAEDTAIYYCARTGWLGPFDYWGQGTLVTVSS
VL: not shown
- binding activity (OD after mutation/OD wild type) (CTLA-4 [3]): 90 to 110%

B26: anti-CTLA-4 antibody light chain S54C-R4-1 (antibody, human IgG1, kappa, V domains shown)
VH: B25 VH with C61A
VL: not shown
modifications: R4-1 on Cys 54
- binding activity (% of WT) (CTLA-4 [4]): 97.7%

B27: anti-CTLA-4 antibody light chain G58C-R4-1 (antibody, human IgG1, kappa, V domains shown)
VH: B25 VH with C61A
VL: not shown
modifications: R4-1 on Cys 58
- binding activity (% of WT) (CTLA-4 [4]): 88.1%

B28: anti-CTLA-4 antibody heavy chain G55C (antibody, human IgG1, kappa, V domains shown)
VH: B25 VH with G55C, C61A
VL: not shown
- binding activity (OD after mutation/OD wild type) (CTLA-4 [3]): 90 to 110%

B29: Ipilimumab L32 Tyr to Cys (antibody, V domains shown)
VH: B25 VH with C61A
VL: not shown
modifications: chain 2 pos 33 (Kabat L32): introduced Cys carrying the conjugated group of the row (R4-7, R4-8 or S47), written C
- Activity after S47 (40 kD) blocking (CTLA-4 [5]): 13%

B30: anti-CTLA-4 antibody heavy chain S63C (antibody, human IgG1, kappa, V domains shown)
VH: B25 VH with C61A, S63C
VL: not shown
- binding activity (OD after mutation/OD wild type) (CTLA-4 [3]): 90 to 110%

B31: anti-CTLA-4 antibody heavy chain G66C (antibody, human IgG1, kappa, V domains shown)
VH: B25 VH with C61A, G66C
VL: not shown
- binding activity (OD after mutation/OD wild type) (CTLA-4 [3]): 90 to 110%

B32: anti-CTLA-4 antibody light chain S95C-R4-1 (antibody, human IgG1, kappa, V domains shown)
VH: B25 VH with C61A
VL: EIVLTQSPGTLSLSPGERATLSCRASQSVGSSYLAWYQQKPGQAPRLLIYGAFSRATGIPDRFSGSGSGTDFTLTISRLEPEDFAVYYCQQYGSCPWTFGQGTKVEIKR
modifications: R4-1 on Cys 95
- binding activity (% of WT) (CTLA-4 [4]): 95.4%

B33: anti-CTLA-4 antibody light chain T98C-R4-1 (antibody, human IgG1, kappa, V domains shown)
VH: B25 VH with C61A
VL: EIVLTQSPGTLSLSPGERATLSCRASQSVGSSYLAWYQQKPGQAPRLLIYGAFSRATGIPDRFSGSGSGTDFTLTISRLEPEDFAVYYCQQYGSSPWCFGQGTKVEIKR
modifications: R4-1 on Cys 98
- binding activity (% of WT) (CTLA-4 [4]): 91%

B34: anti-CTLA-4 antibody light chain A35C-R4-1 (antibody, human IgG1, kappa, V domains shown)
VH: B25 VH with C61A
VL: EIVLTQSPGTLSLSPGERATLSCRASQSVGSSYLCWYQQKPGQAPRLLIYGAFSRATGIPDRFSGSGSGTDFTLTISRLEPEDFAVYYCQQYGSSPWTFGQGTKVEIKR
modifications: R4-1 on Cys 35
- binding activity (% of WT) (CTLA-4 [4]): 91.5%

B35: anti-CTLA-4 antibody light chain G30C-R4-1 (antibody, human IgG1, kappa, V domains shown)
VH: B25 VH with C61A
VL: not shown
modifications: R4-1 on Cys 30
- binding activity (% of WT) (CTLA-4 [4]): 95.3%

B36: Ipilimumab L54 Arg to Cys (antibody, V domains shown)
VH: B25 VH with C61A
VL: not shown
modifications: chain 2 pos 55 (Kabat L54): introduced Cys carries R4-26 (or S47, 40 kD PEG linker) on its thiol, written C
- Activity after S47 (40 kD) blocking (CTLA-4 [5]): 17%

B37: anti-CTLA-4 antibody heavy chain S30C (antibody, human IgG1, kappa, V domains shown)
VH: B25 VH with S30C, C61A
VL: not shown
- binding activity (OD after mutation/OD wild type) (CTLA-4 [3]): 90 to 110%

B38: anti-CTLA-4 antibody light chain G93C-R4-1 (antibody, human IgG1, kappa, V domains shown)
VH: B25 VH with C61A
VL: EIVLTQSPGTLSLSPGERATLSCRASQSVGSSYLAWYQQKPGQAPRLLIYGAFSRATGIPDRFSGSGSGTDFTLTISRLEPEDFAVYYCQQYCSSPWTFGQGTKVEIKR
modifications: R4-1 on Cys 93
- binding activity (% of WT) (CTLA-4 [4]): 99.1%

B39: anti-CTLA-4 antibody light chain S31C-R4-1 (antibody, human IgG1, kappa, V domains shown)
VH: B25 VH with C61A
VL: not shown
modifications: R4-1 on Cys 31
- binding activity (% of WT) (CTLA-4 [4]): 80.9%

B40: anti-CTLA-4 antibody heavy chain S31C (antibody, human IgG1, kappa, V domains shown)
VH: B25 VH with S31C, C61A
VL: not shown
- binding activity (OD after mutation/OD wild type) (CTLA-4 [3]): 90 to 110%

B41: anti-CTLA-4 antibody heavy chain L102C (antibody, human IgG1, kappa, V domains shown)
VH: B25 VH with C61A, L102C
VL: not shown
- binding activity (OD after mutation/OD wild type) (CTLA-4 [3]): 90 to 110%

B42: anti-CTLA-4 antibody light chain S32C-R4-1 (antibody, human IgG1, kappa, V domains shown)
VH: B25 VH with C61A
VL: not shown
modifications: R4-1 on Cys 32
- binding activity (% of WT) (CTLA-4 [4]): 99%

B43: anti-CTLA-4 antibody heavy chain T33C (antibody, human IgG1, kappa, V domains shown)
VH: B25 VH with T33C, C61A
VL: not shown
- binding activity (OD after mutation/OD wild type) (CTLA-4 [3]): 90 to 110%

The next lines start with the values.

- binding activity vs wild type (PD-1 [2]): < 70%
B2: anti-PD-1 antibody 2 heavy chain D62C (antibody, human IgG4 S228P, kappa, V domains shown)
VH: B1 VH with D62C
VL: B1 VL with C25A

- binding activity vs wild type (PD-1 [2]): < 70%
B3: anti-PD-1 antibody 2 heavy chain K65C (antibody, human IgG4 S228P, kappa, V domains shown)
VH: B1 VH with K65C
VL: B1 VL with C25A

- binding activity vs wild type (PD-1 [2]): < 70%
B4: anti-PD-1 antibody 2 heavy chain Y60C (antibody, human IgG4 S228P, kappa, V domains shown)
VH: B1 VH with Y60C
VL: B1 VL with C25A

- binding activity (OD after mutation/OD wild type) (PD-1 [1]): 70 to 90%
B5: anti-PD-1 antibody 2 light chain A55C (antibody, human IgG4 S228P, kappa, V domains shown)
VH: B1 VH
VL: B1 VL with C25A, A55C

- binding activity vs wild type (PD-1 [2]): < 70%
B6: anti-PD-1 antibody 2 heavy chain Y59C (antibody, human IgG4 S228P, kappa, V domains shown)
VH: B1 VH with Y59C
VL: B1 VL with C25A

- binding activity vs wild type (PD-1 [2]): < 70%
B7: anti-PD-1 antibody 2 heavy chain Y53C (antibody, human IgG4 S228P, kappa, V domains shown)
VH: B1 VH with Y53C
VL: B1 VL with C25A

- binding activity (OD after mutation/OD wild type) (PD-1 [1]): 70 to 90%
B8: anti-PD-1 antibody 2 light chain A51C (antibody, human IgG4 S228P, kappa, V domains shown)
VH: B1 VH
VL: B1 VL with C25A, A51C

- binding activity vs wild type (PD-1 [2]): < 70%
B9: anti-PD-1 antibody 2 heavy chain K57C (antibody, human IgG4 S228P, kappa, V domains shown)
VH: B1 VH with K57C
VL: B1 VL with C25A

- binding activity (OD after mutation/OD wild type) (PD-1 [1]): 70 to 90%
B10: anti-PD-1 antibody 2 light chain I58C (antibody, human IgG4 S228P, kappa, V domains shown)
VH: B1 VH
VL: B1 VL with C25A, I58C

- binding activity (OD after mutation/OD wild type) (PD-1 [1]): 70 to 90%
B11: anti-PD-1 antibody 2 light chain A60C (antibody, human IgG4 S228P, kappa, V domains shown)
VH: B1 VH
VL: B1 VL with C25A, A60C

- binding activity (OD after mutation/OD wild type) (PD-1 [1]): 70 to 90%
B22: anti-PD-1 antibody 1 light chain L54C (antibody, human IgG4 S228P, kappa, V domains shown)
VH: B19 VH with C65K
VL: B19 VL with L54C

- binding activity (OD after mutation/OD wild type) (PD-1 [1]): 70 to 90%
B23: anti-PD-1 antibody 1 light chain T101C (antibody, human IgG4 S228P, kappa, V domains shown)
VH: B19 VH with C65K
VL: B19 VL with T101C

- binding activity (OD after mutation/OD wild type) (PD-1 [1]): 70 to 90%
B24: anti-PD-1 antibody 1 light chain T31C (antibody, human IgG4 S228P, kappa, V domains shown)
VH: B19 VH with C65K
VL: B19 VL with T31C

From patent publication US20230158141A1 (YAFEI SHANGHAI BIOLOG MEDICINE SCIENCE AND TECHNOLOGY, published 2023)
